No end group written: not given here.
Legend:
Settings in all cases: both partners purified
[1] = target: T1, ARM repeat domain of human β-catenin (residues 134–671) (human, UniProt P35222 134-671); assay: ITC; β-catenin 2–4 µM in the cell, TCF7L2 18–40 µM in the syringe; PBS, 1 mM DTT, 30 °C; one-site binding fit
T1 construct: β-catenin, human, ARM repeat domain, residues 134–671; Plasmid was a gift from W.I. Weis; source: E. coli C41, purified (glutathione-Sepharose 4B, thrombin cleavage on resin, Mono-Q)
T1 sequence (looked up): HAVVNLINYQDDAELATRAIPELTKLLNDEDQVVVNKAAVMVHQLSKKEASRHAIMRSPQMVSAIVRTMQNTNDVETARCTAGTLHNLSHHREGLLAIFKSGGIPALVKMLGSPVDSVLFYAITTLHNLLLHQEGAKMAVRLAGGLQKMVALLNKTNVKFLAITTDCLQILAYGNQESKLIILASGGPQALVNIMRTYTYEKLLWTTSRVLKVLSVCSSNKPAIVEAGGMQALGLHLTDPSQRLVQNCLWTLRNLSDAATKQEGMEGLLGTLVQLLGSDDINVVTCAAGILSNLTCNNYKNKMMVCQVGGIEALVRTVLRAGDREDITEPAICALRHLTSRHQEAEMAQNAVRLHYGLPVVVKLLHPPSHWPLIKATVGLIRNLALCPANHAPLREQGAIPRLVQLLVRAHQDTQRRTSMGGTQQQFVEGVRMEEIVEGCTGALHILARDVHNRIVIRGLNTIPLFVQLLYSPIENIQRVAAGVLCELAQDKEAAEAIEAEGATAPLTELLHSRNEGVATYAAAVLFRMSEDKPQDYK

[2] = target: T1, ARM repeat domain of human β-catenin …; assay: stopped-flow fluorescence kinetics (association); 10 nM fluorescein-labelled TCF7L2 mixed 1:1 with 100–1000 nM unlabelled β-catenin, pseudo-first-order; PBS, 1 mM DTT, 15 °C; kon from the linear fit of kobs against β-catenin concentration
[3] = target: T1, ARM repeat domain of human β-catenin …; assay: stopped-flow fluorescence kinetics (dissociation); pre-formed 1:1 complex (200 nM) of labelled TCF7L2 and β-catenin mixed 1:1 with 50-times molar excess of unlabelled TCF7L2 (10 µM); PBS, 1 mM DTT, 15 °C; fitted to sums of exponential phases
[4] = target: T1, ARM repeat domain of human β-catenin …; assay: fluorescence spectroscopy kinetics (dissociation, fluorimeter); pre-formed 1:1 complex of labelled TCF7L2 and β-catenin mixed 1:1 with 50-times molar excess of unlabelled TCF7L2; PBS, 1 mM DTT, 15 °C; fitted to sums of exponential phases

B1: TCF7L2 (1–54), wild type, unlabelled (domain or fragment, UniProt Q9NQB0 1-54, looked up)
chain: MPQLNGGGGDDLGANDELISFKDEGEQEEKSSENSSAERDLADVKSSLVNESET
notes: also called wild-type TCF7L2 (1–54); source: E. coli C41, purified (Ni-NTA, thrombin cleavage, Superdex 75)
binding result [1]: binds

B2: TCF7L2 (1–54) S31C V44A, fluorescein-labelled (domain or fragment, UniProt Q9NQB0 1-54, looked up)
chain: MPQLNGGGGDDLGANDELISFKDEGEQEEKC(fluorescein maleimide)SENSSAERDLADAKSSLVNESET
notes: One extra serine is left behind after thrombin cleavage of the tag; source: E. coli C41, purified (Ni-NTA, thrombin cleavage, Superdex 75), labelled with fluorescein maleimide
kon [2]: 5.05e+07 ± 0.46 M⁻¹ s⁻¹
koff,major (major slow phase of biphasic dissociation) [3]: 0.0742 ± 8 s⁻¹
koff,minor (minor fast phase of biphasic dissociation) [3]: 0.498 ± 70 s⁻¹

B3: TCF7L2 (1–54) S31C L12A, fluorescein-labelled (domain or fragment, UniProt Q9NQB0 1-54, looked up)
chain: MPQLNGGGGDDAGANDELISFKDEGEQEEKC(fluorescein maleimide)SENSSAERDLADVKSSLVNESET
notes: as for B2
koff,major (major slow phase of biphasic dissociation) [4]: 0.000977 ± 0.75 s⁻¹
koff,minor (minor fast phase of biphasic dissociation) [4]: 0.00264 ± 0.2 s⁻¹
kon [2]: 7.19e+07 ± 0.13 M⁻¹ s⁻¹

B4: TCF7L2 (1–54) S31C K45A, fluorescein-labelled (domain or fragment, UniProt Q9NQB0 1-54, looked up)
chain: MPQLNGGGGDDLGANDELISFKDEGEQEEKC(fluorescein maleimide)SENSSAERDLADVASSLVNESET
notes: as for B2
koff,major (major slow phase of biphasic dissociation) [4]: 0.00219 ± 0.4 s⁻¹
koff,minor (minor fast phase of biphasic dissociation) [4]: 0.015 ± 1.3 s⁻¹
kon [2]: 1.031e+08 ± 0.19 M⁻¹ s⁻¹

B5: TCF7L2 (1–54) S31C E28A, fluorescein-labelled (domain or fragment, UniProt Q9NQB0 1-54, looked up)
chain: MPQLNGGGGDDLGANDELISFKDEGEQAEKC(fluorescein maleimide)SENSSAERDLADVKSSLVNESET
notes: as for B2
koff,major (major slow phase of biphasic dissociation) [4]: 0.000496 ± 0.35 s⁻¹
koff,minor (minor fast phase of biphasic dissociation) [4]: 0.00116 ± 0.28 s⁻¹
kon [2]: 5.84e+07 ± 0.35 M⁻¹ s⁻¹

B6: TCF7L2 (1–54) S31C N15A, fluorescein-labelled (domain or fragment, UniProt Q9NQB0 1-54, looked up)
chain: MPQLNGGGGDDLGAADELISFKDEGEQEEKC(fluorescein maleimide)SENSSAERDLADVKSSLVNESET
notes: as for B2
koff,major (major slow phase of biphasic dissociation) [4]: 0.000442 ± 0.15 s⁻¹
koff,minor (minor fast phase of biphasic dissociation) [4]: 0.00365 ± 0.83 s⁻¹
kon [2]: 6.25e+07 ± 0.23 M⁻¹ s⁻¹

B7: TCF7L2 (1–54) S31C E38A, fluorescein-labelled (domain or fragment, UniProt Q9NQB0 1-54, looked up)
chain: MPQLNGGGGDDLGANDELISFKDEGEQEEKC(fluorescein maleimide)SENSSAARDLADVKSSLVNESET
notes: as for B2
koff,major (major slow phase of biphasic dissociation) [4]: 0.000539 ± 0.5 s⁻¹
koff,minor (minor fast phase of biphasic dissociation) [4]: 0.00261 ± 0.28 s⁻¹
kon [2]: 6.2e+07 ± 0.19 M⁻¹ s⁻¹

B8: TCF7L2 (1–54) S31C, labelled with fluorescein maleimide at Cys31 (domain or fragment, UniProt Q9NQB0 1-54, looked up)
chain: MPQLNGGGGDDLGANDELISFKDEGEQEEKC(fluorescein maleimide)SENSSAERDLADVKSSLVNESET
notes: One extra serine is left behind after thrombin cleavage of the tag; also called fluorescein-labelled WT; fluorescent-labelled WT TCF7L2 (1–54); source: E. coli C41, purified (Ni-NTA, thrombin cleavage, Superdex 75), labelled with fluorescein maleimide
koff,major (major slow phase of biphasic dissociation) [4]: 0.000573 ± 0.4 s⁻¹
koff,minor (minor fast phase of biphasic dissociation) [4]: 0.00152 ± 0.28 s⁻¹
kon [2]: 7.33e+07 ± 0.14 M⁻¹ s⁻¹

B9: TCF7L2 (1–54) S31C F21A, fluorescein-labelled (domain or fragment, UniProt Q9NQB0 1-54, looked up)
chain: MPQLNGGGGDDLGANDELISAKDEGEQEEKC(fluorescein maleimide)SENSSAERDLADVKSSLVNESET
notes: as for B2
kon [2]: 4.82e+07 ± 0.17 M⁻¹ s⁻¹
koff,major (major slow phase of biphasic dissociation) [3]: 0.0258 ± 2 s⁻¹
koff,minor (minor fast phase of biphasic dissociation) [3]: 0.423 ± 15 s⁻¹

B10: TCF7L2 (1–54) S31C I19A, fluorescein-labelled (domain or fragment, UniProt Q9NQB0 1-54, looked up)
chain: MPQLNGGGGDDLGANDELASFKDEGEQEEKC(fluorescein maleimide)SENSSAERDLADVKSSLVNESET
notes: One extra serine is left behind after thrombin cleavage of the tag; also called TCF7L2 I19A; source: E. coli C41, purified (Ni-NTA, thrombin cleavage, Superdex 75), labelled with fluorescein maleimide
kon [2]: 7.04e+07 ± 0.52 M⁻¹ s⁻¹
koff,major (major slow phase of biphasic dissociation) [3]: 0.011 ± 0.5 s⁻¹
koff,minor (minor fast phase of biphasic dissociation) [3]: 0.207 ± 10 s⁻¹

B11: TCF7L2 (1–54) S31C L41A, fluorescein-labelled (domain or fragment, UniProt Q9NQB0 1-54, looked up)
chain: MPQLNGGGGDDLGANDELISFKDEGEQEEKC(fluorescein maleimide)SENSSAERDAADVKSSLVNESET
notes: as for B2
kon [2]: 5.95e+07 ± 0.24 M⁻¹ s⁻¹
koff,major (major slow phase of biphasic dissociation) [3]: 0.0993 ± 17 s⁻¹
koff,minor (minor fast phase of biphasic dissociation) [3]: 0.616 ± 111 s⁻¹

B12: TCF7L2 (1–54) S31C D23A E24A E26A E28A E29A (5X), fluorescein-labelled (domain or fragment, UniProt Q9NQB0 1-54, looked up)
chain: MPQLNGGGGDDLGANDELISFKAAGAQAAKC(fluorescein maleimide)SENSSAERDLADVKSSLVNESET
notes: One extra serine is left behind after thrombin cleavage of the tag; also called quintuple mutant; 5X variant; source: E. coli C41, purified (Ni-NTA, thrombin cleavage, Superdex 75), labelled with fluorescein maleimide
koff,major (major slow phase of biphasic dissociation) [4]: 0.000295 ± 0.23 s⁻¹
koff,minor (minor fast phase of biphasic dissociation) [4]: 0.00234 ± 0.33 s⁻¹
kon [2]: 4.26e+07 ± 0.17 M⁻¹ s⁻¹

B13: TCF7L2 (1–54) S31C L48A, fluorescein-labelled (domain or fragment, UniProt Q9NQB0 1-54, looked up)
chain: MPQLNGGGGDDLGANDELISFKDEGEQEEKC(fluorescein maleimide)SENSSAERDLADVKSSAVNESET
notes: as for B2
koff,major (major slow phase of biphasic dissociation) [4]: 0.00132 ± 0.1 s⁻¹
koff,minor (minor fast phase of biphasic dissociation) [4]: 0.00424 ± 0.13 s⁻¹
kon [2]: 5.67e+07 ± 0.6 M⁻¹ s⁻¹

B14: TCF7L2 (1–54) S31C E26A, fluorescein-labelled (domain or fragment, UniProt Q9NQB0 1-54, looked up)
chain: MPQLNGGGGDDLGANDELISFKDEGAQEEKC(fluorescein maleimide)SENSSAERDLADVKSSLVNESET
notes: as for B2
koff,major (major slow phase of biphasic dissociation) [4]: 0.000474 ± 0.3 s⁻¹
koff,minor (minor fast phase of biphasic dissociation) [4]: 0.00166 ± 0.16 s⁻¹
kon [2]: 5.59e+07 ± 0.22 M⁻¹ s⁻¹

B15: TCF7L2 (1–54) S31C E17A, fluorescein-labelled (domain or fragment, UniProt Q9NQB0 1-54, looked up)
chain: MPQLNGGGGDDLGANDALISFKDEGEQEEKC(fluorescein maleimide)SENSSAERDLADVKSSLVNESET
notes: as for B2
koff,major (major slow phase of biphasic dissociation) [4]: 0.00891 ± 2.9 s⁻¹
koff,minor (minor fast phase of biphasic dissociation) [4]: 0.0283 ± 1.9 s⁻¹
kon [2]: 6.3e+07 ± 0.42 M⁻¹ s⁻¹

B16: TCF7L2 (1–54) S31C E29A, fluorescein-labelled (domain or fragment, UniProt Q9NQB0 1-54, looked up)
chain: MPQLNGGGGDDLGANDELISFKDEGEQEAKC(fluorescein maleimide)SENSSAERDLADVKSSLVNESET
notes: as for B2
koff,major (major slow phase of biphasic dissociation) [4]: 0.000897 ± 0.44 s⁻¹
koff,minor (minor fast phase of biphasic dissociation) [4]: 0.00245 ± 0.21 s⁻¹
kon [2]: 5.73e+07 ± 0.43 M⁻¹ s⁻¹

B17: TCF7L2 (1–54) S31C E24A, fluorescein-labelled (domain or fragment, UniProt Q9NQB0 1-54, looked up)
chain: MPQLNGGGGDDLGANDELISFKDAGEQEEKC(fluorescein maleimide)SENSSAERDLADVKSSLVNESET
notes: as for B2
koff,major (major slow phase of biphasic dissociation) [4]: 0.000503 ± 0.4 s⁻¹
koff,minor (minor fast phase of biphasic dissociation) [4]: 0.00153 ± 0.21 s⁻¹
kon [2]: 6.05e+07 ± 0.12 M⁻¹ s⁻¹

B18: TCF7L2 (1–54) S31C D23A, fluorescein-labelled (domain or fragment, UniProt Q9NQB0 1-54, looked up)
chain: MPQLNGGGGDDLGANDELISFKAEGEQEEKC(fluorescein maleimide)SENSSAERDLADVKSSLVNESET
notes: as for B2
koff,major (major slow phase of biphasic dissociation) [4]: 0.0003 ± 0.16 s⁻¹
koff,minor (minor fast phase of biphasic dissociation) [4]: 0.00239 ± 0.7 s⁻¹
kon [2]: 5.31e+07 ± 0.25 M⁻¹ s⁻¹

B19: TCF7L2 (1–54) S31C, unlabelled (domain or fragment, UniProt Q9NQB0 1-54, looked up)
chain: MPQLNGGGGDDLGANDELISFKDEGEQEEKCSENSSAERDLADVKSSLVNESET
notes: One extra serine is left behind after thrombin cleavage of the tag; also called WT; pseudo-wild type; source: E. coli C41, purified (Ni-NTA, thrombin cleavage, Superdex 75)
binding result [1]: binds

B20: TCF7L2 (1–54) S31C E24A E29A, fluorescein-labelled (domain or fragment, UniProt Q9NQB0 1-54, looked up)
chain: MPQLNGGGGDDLGANDELISFKDAGEQEAKC(fluorescein maleimide)SENSSAERDLADVKSSLVNESET
notes: One extra serine is left behind after thrombin cleavage of the tag; also called double mutant; source: E. coli C41, purified (Ni-NTA, thrombin cleavage, Superdex 75), labelled with fluorescein maleimide
koff,major (major slow phase of biphasic dissociation) [4]: 0.000425 ± 0.29 s⁻¹
koff,minor (minor fast phase of biphasic dissociation) [4]: 0.00173 ± 0.14 s⁻¹
kon [2]: 6.13e+07 ± 0.34 M⁻¹ s⁻¹

Source: publication PMC8228192, “Parallel and Sequential Pathways of Molecular Recognition of a Tandem-Repeat Protein and Its Intrinsically Disordered Binding Partner” (Biomolecules, 2021)
